Among the data in PMC7299281 are IC50 of neutralisation of SARS-CoV pseudovirus values, retold here.

The target of this test is prefusion S protein of SARS-CoV (SARS-CoV).

Substance COVA1-16 (antibody) had an IC50 of neutralisation of SARS-CoV pseudovirus of 2.5 µg/mL. Under COVA2-02 (antibody) stands 0.61 µg/mL.
